In KR20170021349A, “다양한 질병의 치료를 위한 jnk 신호 전달 경로의 세포 투과성 펩타이드 억제자의 새로운 용도” (자이겐 인플라메이션 리미티드, priority 2014, dated 2017):
Entries after “also recorded” stand apart in the source; their conditions may differ.

What was measured:
TC-3 cells = test: IL-1-induced pancreatic beta-cell apoptosis; assay type: cell-based; details: 1 μM single addition, 15 days IL-1
[1] = tested on: human foreskin fibroblasts (HFFs); test: Neutral Red cytotoxicity assay; assay type: cell-based; details: 1, 2, 5 μM, 24 h
[2] = tested on: Varicella Zoster Virus (VZV); test: VZV-BAC-Luc replication (luciferase) in HFFs; assay type: cell-based; details: 24 h
rats = test: Adriamycin-induced nephropathy; assay type: in vivo, rat
Sprague-Dawley rats = test: STZ diabetic nephropathy model, chronic administration; assay type: in vivo, rat; details: 1, 2, 4 mg/kg i.v. weekly, 9 weeks
rat pancreatic islets [3] = test: Rat islet isolation after warm ischemia; assay type: cell-based
rat pancreatic islets [4] = test: Rat islets, 4 h hypoxia; assay type: cell-based; details: 100 μM
Brown Norway rats = test: STZ diabetic retinopathy prevention, intravitreal, ERG; assay type: in vivo, rat
[5] = tested on: Mapk14f/f and Mapk14Δli* mice; test: DEN-induced hepatocyte proliferation (Ki67) in Mapk14-deficient mice; assay type: in vivo, mouse; details: 20 mg/kg i.p. before DEN, 48 h
[6] = tested on: Hep G2 tumours in SWISS nude mice; test: Orthotopic Hep G2 human liver carcinoma, 1 mg/kg; assay type: in vivo, mouse
[7] = tested on: Hep G2 tumours in SWISS nude mice; test: Orthotopic Hep G2 human liver carcinoma, dose/response; assay type: in vivo, mouse
Wistar rats [8] = test: Renal ischemia/reperfusion, 40 min clamping; assay type: in vivo, rat; details: 2 mg/kg i.v. 1 h after clamping; 24 h
Wistar rats [9] = test: PAN-induced nephropathy, frequency of administration; assay type: in vivo, rat
[10] = tested on: primary mouse cortical neurons (WT); test: Aβ42-induced stress/apoptosis in WT cortical neurons; assay type: cell-based
[11] = Distribution of C14-labelled peptide, 72 h after s.c., i.v., i.p.; assay type: in vivo, mouse; details: 1 mg/kg, Fig. 25
[12] = Ocular MTD study, subconjunctival; assay type: in vivo, rat
[13] = Ocular pharmacokinetics after single and repeated subconjunctival administration; assay type: in vivo, rabbit
[14] = 10 μM pre-treatment, 2 μM Aβ42 5 h (Example 49)
[15] = peptide pre-treatment 1 h (XG-102 10 μM), 2 μM Aβ42

NH2-DQSRPVQPFLNLTTPRKPRPPRRRQRRKKRG-COOH (H-DQSRPVQPFLNLTTPRKPRPPRRRQRRKKRG-OH; also: D-amino acids (positions not given here)) [XG-102]
long-term protection against IL-1-induced cell death (TC-3 cells): 보호를 부여할 수 있었으나
cytotoxicity [1]: 관찰되지 않았으며
lowest tested concentration preventing VZV replication [2]: 0.25 µM
development of glomerular and tubulointerstitial fibrosis (rats; 2 mg/kg i.v. day 0): 발생을 예방하고
effect on adriamycin-induced nephropathy (histology) (rats; 20, 200, 2000 μg/kg i.v., days 8-41): 현저하게 긍정적인 효과를 갖는다
serum urea level throughout the disease course (rats; ADR 10 mg/kg + XG-102 2 mg/kg i.v. day 0, up to day 56): ≤ 10 mmol/L
adverse effect on proteinuria (rats; albumin ELISA, Fig. 41): 어떠한 역효과도 유발하지 않는
c-jun expression in the interstitium (rats; days 8 and 14, Fig. 46-47): 현저한 감소를 초래
body weight vs vehicle-treated STZ rats (Sprague-Dawley rats): 차이를 나타내지 않았다
islet function (static insulin secretion) after 18 h culture (rat pancreatic islets [3]; 15-min ischemia): 섬 기능에 영향을 미치지 않았다
glucose-induced insulin secretion vs ischemic rats (rat pancreatic islets [3]; 30-min ischemia, 100 μM): 더 높았으며
islet apoptosis and necrosis (rat pancreatic islets [3]; 30-min ischemia, 100 μM): 세포 자멸 및 괴사를 감소시키는
JNK and PAF2 phosphorylation induced by 15-min ischemia (rat pancreatic islets [3]; Western blot, Fig. 56): 투여량 의존적으로 감소되는
hypoxia-induced phosphorylation of JNK and JUN (rat pancreatic islets [4]; 1 h pre-treatment + 4 h hypoxia): 인산화를 억제하지 않았다
islet apoptosis and necrosis (rat pancreatic islets [4]; normoxia and hypoxia): 감소되었다
OP#1 scotopic single flash 0dB amplitude (Brown Norway rats; 0.2 μg/eye IVT d1,8,15, day 6): 49 μV
OP#2 scotopic single flash 0dB amplitude (Brown Norway rats; 0.2 μg/eye, day 6): 98 μV
OP#3 scotopic single flash 0dB amplitude (Brown Norway rats; 0.2 μg/eye, day 6): 219 μV
OP#4 scotopic single flash 0dB amplitude (Brown Norway rats; 0.2 μg/eye, day 6): 147 μV
photopic 1Hz flicker A-wave amplitude (Brown Norway rats; 0.2 μg/eye, day 6): -3 μV
photopic 1Hz flicker B-wave amplitude (Brown Norway rats; 0.2 μg/eye, day 6): 63 μV
photopic 29Hz flicker B-wave amplitude (Brown Norway rats; 0.2 μg/eye, day 6): 9 μV
scotopic single flash 0dB A-wave amplitude (Brown Norway rats; 0.2 μg/eye, day 6): -209 μV
scotopic single flash 0dB B-wave amplitude (Brown Norway rats; 0.2 μg/eye, day 6): 421 μV
scotopic single flash -10dB A-wave amplitude (Brown Norway rats; 0.2 μg/eye, day 6): -151 μV
scotopic single flash -30dB B-wave amplitude (Brown Norway rats; 0.2 μg/eye, day 6): 269 μV
OP#1 scotopic single flash 0dB amplitude (Brown Norway rats; 0.2 μg/eye, day 13): 37 μV
OP#2 scotopic single flash 0dB amplitude (Brown Norway rats; 0.2 μg/eye, day 13): 63 μV
OP#3 scotopic single flash 0dB amplitude (Brown Norway rats; 0.2 μg/eye, day 13): 165 μV
OP#4 scotopic single flash 0dB amplitude (Brown Norway rats; 0.2 μg/eye, day 13): 129 μV
photopic 1Hz flicker A-wave amplitude (Brown Norway rats; 0.2 μg/eye, day 13): -4 μV
photopic 1Hz flicker B-wave amplitude (Brown Norway rats; 0.2 μg/eye, day 13): 71 μV
photopic 29Hz flicker B-wave amplitude (Brown Norway rats; 0.2 μg/eye, day 13): 14 μV
scotopic single flash 0dB A-wave amplitude (Brown Norway rats; 0.2 μg/eye, day 13): -203 μV
scotopic single flash 0dB B-wave amplitude (Brown Norway rats; 0.2 μg/eye, day 13): 442 μV
scotopic single flash -10dB A-wave amplitude (Brown Norway rats; 0.2 μg/eye, day 13): -128 μV
scotopic single flash -30dB B-wave amplitude (Brown Norway rats; 0.2 μg/eye, day 13): 270 μV
OP#1 scotopic single flash 0dB amplitude (Brown Norway rats; 0.2 μg/eye, day 20): 36 μV
OP#2 scotopic single flash 0dB amplitude (Brown Norway rats; 0.2 μg/eye, day 20): 70 μV
OP#3 scotopic single flash 0dB amplitude (Brown Norway rats; 0.2 μg/eye, day 20): 164 μV
OP#4 scotopic single flash 0dB amplitude (Brown Norway rats; 0.2 μg/eye, day 20): 116 μV
photopic 1Hz flicker A-wave amplitude (Brown Norway rats; 0.2 μg/eye, day 20): -2 μV
photopic 1Hz flicker B-wave amplitude (Brown Norway rats; 0.2 μg/eye, day 20): 70 μV
photopic 29Hz flicker B-wave amplitude (Brown Norway rats; 0.2 μg/eye, day 20): 10 μV
scotopic single flash 0dB A-wave amplitude (Brown Norway rats; 0.2 μg/eye, day 20): -198 μV
scotopic single flash 0dB B-wave amplitude (Brown Norway rats; 0.2 μg/eye, day 20): 433 μV
scotopic single flash -10dB A-wave amplitude (Brown Norway rats; 0.2 μg/eye, day 20): -129 μV
scotopic single flash -30dB B-wave amplitude (Brown Norway rats; 0.2 μg/eye, day 20): 240 μV
OP#1 scotopic single flash 0dB amplitude (Brown Norway rats; 2 μg/eye IVT d1,8,15, day 6): 40 μV
OP#2 scotopic single flash 0dB amplitude (Brown Norway rats; 2 μg/eye, day 6): 93 μV
OP#3 scotopic single flash 0dB amplitude (Brown Norway rats; 2 μg/eye, day 6): 239 μV
OP#4 scotopic single flash 0dB amplitude (Brown Norway rats; 2 μg/eye, day 6): 182 μV
photopic 1Hz flicker A-wave amplitude (Brown Norway rats; 2 μg/eye, day 6): -3 μV
photopic 1Hz flicker B-wave amplitude (Brown Norway rats; 2 μg/eye, day 6): 69 μV
photopic 29Hz flicker B-wave amplitude (Brown Norway rats; 2 μg/eye, day 6): 11 μV
scotopic single flash 0dB A-wave amplitude (Brown Norway rats; 2 μg/eye, day 6): -205 μV
scotopic single flash 0dB B-wave amplitude (Brown Norway rats; 2 μg/eye, day 6): 383 μV
scotopic single flash -10dB A-wave amplitude (Brown Norway rats; 2 μg/eye, day 6): -124 μV
scotopic single flash -30dB B-wave amplitude (Brown Norway rats; 2 μg/eye, day 6): 270 μV
OP#1 scotopic single flash 0dB amplitude (Brown Norway rats; 2 μg/eye, day 13): 33 μV
OP#2 scotopic single flash 0dB amplitude (Brown Norway rats; 2 μg/eye, day 13): 92 μV
OP#3 scotopic single flash 0dB amplitude (Brown Norway rats; 2 μg/eye, day 13): 219 μV
OP#4 scotopic single flash 0dB amplitude (Brown Norway rats; 2 μg/eye, day 13): 160 μV
photopic 1Hz flicker A-wave amplitude (Brown Norway rats; 2 μg/eye, day 13): -6 μV
photopic 1Hz flicker B-wave amplitude (Brown Norway rats; 2 μg/eye, day 13): 91 μV
photopic 29Hz flicker B-wave amplitude (Brown Norway rats; 2 μg/eye, day 13): 17 μV
scotopic single flash 0dB A-wave amplitude (Brown Norway rats; 2 μg/eye, day 13): -261 μV
scotopic single flash 0dB B-wave amplitude (Brown Norway rats; 2 μg/eye, day 13): 524 μV
scotopic single flash -10dB A-wave amplitude (Brown Norway rats; 2 μg/eye, day 13): -152 μV
scotopic single flash -30dB B-wave amplitude (Brown Norway rats; 2 μg/eye, day 13): 292 μV
OP#1 scotopic single flash 0dB amplitude (Brown Norway rats; 2 μg/eye, day 20): 26 μV
OP#2 scotopic single flash 0dB amplitude (Brown Norway rats; 2 μg/eye, day 20): 49 μV
OP#3 scotopic single flash 0dB amplitude (Brown Norway rats; 2 μg/eye, day 20): 137 μV
OP#4 scotopic single flash 0dB amplitude (Brown Norway rats; 2 μg/eye, day 20): 130 μV
photopic 1Hz flicker A-wave amplitude (Brown Norway rats; 2 μg/eye, day 20): -2 μV
photopic 1Hz flicker B-wave amplitude (Brown Norway rats; 2 μg/eye, day 20): 45 μV
photopic 29Hz flicker B-wave amplitude (Brown Norway rats; 2 μg/eye, day 20): 9 μV
scotopic single flash 0dB A-wave amplitude (Brown Norway rats; 2 μg/eye, day 20): -147 μV
scotopic single flash 0dB B-wave amplitude (Brown Norway rats; 2 μg/eye, day 20): 278 μV
scotopic single flash -10dB A-wave amplitude (Brown Norway rats; 2 μg/eye, day 20): -84 μV
scotopic single flash -30dB B-wave amplitude (Brown Norway rats; 2 μg/eye, day 20): 166 μV
substance-related deaths (Brown Norway rats; 0.2 and 2 μg/eye IVT): XG-102 관련된 사망은 없었다
overall effect on decrease of ERG wave amplitudes (Brown Norway rats; rat, in vivo): 웨이브 진폭의 감소를 역전시키는 경향이 있다
vascular leakage on fluorescein angiography (Brown Norway rats; rat, in vivo): 혈관 누출을 나타내지 않았고
hyperproliferation of Mapk14-/- hepatocytes (Ki67) [5]: 되돌린다
tolerance (body weight) ([6]; 1 mg/kg/inj i.v.): 내약성이 우수함
T/C ([6]; 1 mg/kg/inj i.v. [Q4Dx4]x2): 120%
mean survival time (as headed) ([6]; 1 mg/kg/inj i.v. [Q4Dx4]x2, vehicle 102): 123 일
median survival time ± SD (as headed) ([6]; 1 mg/kg/inj i.v. [Q4Dx4]x2 from D10, D41, vehicle 102 ± 8): 111 ± 14 days
T/C ([7]; 0.1 mg/kg): 123%
tumour mass in liver, per mouse sacrificed at D171 (microscopy) ([7]; 0.1 mg/kg, 2 mice): 간에 종양 (1.3cm); also recorded: 검출된 종양 없음
mean survival time (as headed) ([7]; 0.1 mg/kg/inj i.v. Q4Dx4, vehicle 86): 105 days
T/C ([7]; 1 mg/kg): 161%
tumour mass in liver, per mouse sacrificed at D171 (microscopy) ([7]; 1 mg/kg, 3 mice (2 without tumour)): 검출된 종양 없음; also recorded: 간에 종양 (1.9cm)
mean survival time (as headed) ([7]; 1 mg/kg/inj i.v. Q4Dx4): 138 days
T/C ([7]; 5 mg/kg): 137%
tumour mass in liver, per mouse sacrificed at D171 (microscopy) ([7]; 5 mg/kg, 3 mice): 검출된 종양 없음 검출된 종양 없음 검출된 종양 없음
mean survival time (as headed) ([7]; 5 mg/kg/inj i.v. Q4Dx4): 118 days
tolerance (body weight) ([7]; 0.1-5 mg/kg): 내약성이 우수함
serum creatinine vs untreated ischemic rats (Wistar rats [8]): 보다 낮은 혈청 크레아티닌을 보였다
glomerular injury score (GIS) (Wistar rats [9]; 4 mg/kg i.v. x1 (d21), day 49): 1.53 ± 0.05
glomerular injury score (GIS) (Wistar rats [9]; 4 mg/kg i.v. x1 (d21), day 77, PAN/vehicle 1.39 ± 0.10): 0.82 ± 0.04
percentage of injured glomeruli (Wistar rats [9]; 4 mg/kg i.v. x1, day 77 (PAN/vehicle 91%)): 69%
glomerular injury score (GIS) (Wistar rats [9]; 4 mg/kg i.v. x2 (d21, d35), day 49, P<0.01): 1.26 ± 0.06
glomerular injury score (GIS) (Wistar rats [9]; 4 mg/kg i.v. x4 (weekly from d21), day 49, PAN/vehicle 1.50 ± 0.06): 0.94 ± 0.05
percentage of injured glomeruli (Wistar rats [9]; 4 mg/kg i.v. x4, day 49): 76.9%
mean % glomeruli with grade 1 (Wistar rats [9]; 4 mg/kg i.v. x4, day 49 (PAN/vehicle 37%)): 61%
mean % glomeruli with grade 2 (Wistar rats [9]; 4 mg/kg i.v. x4, day 49 (PAN/vehicle 46%)): 15%
JNK activity (pJNK/JNK) [10, 14]: 변화는 관찰되지 않았다
decrease of apoptosis (cleaved PARP) [10, 14]: 37%
decrease of caspase 3 activity ([10]; 10 μM, 2 μM Aβ42): 71%
decrease of cleaved PARP expression level ([10]; 10 μM, 2 μM Aβ42): 55%
decrease of cleaved caspase 3 expression level ([10]; 10 μM, 2 μM Aβ42): 93%
change of c-Jun expression vs stressed neurons without peptide [10, 15]: -65%
change of c-Jun phosphorylation vs stressed neurons without peptide [10, 15]: -74%
tissue accumulation [11]: 간, 비장 및 골수 대부분에서 XG-102 펩타이드의 축적
NOAEL [12]: ~20 µg
presence in choroid, bulbar conjunctiva, iris-ciliary body ([13]; 7 days after administration): 여전히 존재함
detection in plasma ([13]; rabbit, in vivo): 항상 검출되지 않았다
